Reference: paper PMC3633930, “Low Voltage Activation of KCa1.1 Current by Cav3-KCa1.1 Complexes” (PLoS ONE, 2013)

Biological target: Cav3.2 calcium channel α-subunit, full length, human (human, UniProt O95180 1-2353)
Assay: cell-based or functional assay

Chain of Cav3.2 calcium channel α-subunit, full length, human (O95180 whole entry): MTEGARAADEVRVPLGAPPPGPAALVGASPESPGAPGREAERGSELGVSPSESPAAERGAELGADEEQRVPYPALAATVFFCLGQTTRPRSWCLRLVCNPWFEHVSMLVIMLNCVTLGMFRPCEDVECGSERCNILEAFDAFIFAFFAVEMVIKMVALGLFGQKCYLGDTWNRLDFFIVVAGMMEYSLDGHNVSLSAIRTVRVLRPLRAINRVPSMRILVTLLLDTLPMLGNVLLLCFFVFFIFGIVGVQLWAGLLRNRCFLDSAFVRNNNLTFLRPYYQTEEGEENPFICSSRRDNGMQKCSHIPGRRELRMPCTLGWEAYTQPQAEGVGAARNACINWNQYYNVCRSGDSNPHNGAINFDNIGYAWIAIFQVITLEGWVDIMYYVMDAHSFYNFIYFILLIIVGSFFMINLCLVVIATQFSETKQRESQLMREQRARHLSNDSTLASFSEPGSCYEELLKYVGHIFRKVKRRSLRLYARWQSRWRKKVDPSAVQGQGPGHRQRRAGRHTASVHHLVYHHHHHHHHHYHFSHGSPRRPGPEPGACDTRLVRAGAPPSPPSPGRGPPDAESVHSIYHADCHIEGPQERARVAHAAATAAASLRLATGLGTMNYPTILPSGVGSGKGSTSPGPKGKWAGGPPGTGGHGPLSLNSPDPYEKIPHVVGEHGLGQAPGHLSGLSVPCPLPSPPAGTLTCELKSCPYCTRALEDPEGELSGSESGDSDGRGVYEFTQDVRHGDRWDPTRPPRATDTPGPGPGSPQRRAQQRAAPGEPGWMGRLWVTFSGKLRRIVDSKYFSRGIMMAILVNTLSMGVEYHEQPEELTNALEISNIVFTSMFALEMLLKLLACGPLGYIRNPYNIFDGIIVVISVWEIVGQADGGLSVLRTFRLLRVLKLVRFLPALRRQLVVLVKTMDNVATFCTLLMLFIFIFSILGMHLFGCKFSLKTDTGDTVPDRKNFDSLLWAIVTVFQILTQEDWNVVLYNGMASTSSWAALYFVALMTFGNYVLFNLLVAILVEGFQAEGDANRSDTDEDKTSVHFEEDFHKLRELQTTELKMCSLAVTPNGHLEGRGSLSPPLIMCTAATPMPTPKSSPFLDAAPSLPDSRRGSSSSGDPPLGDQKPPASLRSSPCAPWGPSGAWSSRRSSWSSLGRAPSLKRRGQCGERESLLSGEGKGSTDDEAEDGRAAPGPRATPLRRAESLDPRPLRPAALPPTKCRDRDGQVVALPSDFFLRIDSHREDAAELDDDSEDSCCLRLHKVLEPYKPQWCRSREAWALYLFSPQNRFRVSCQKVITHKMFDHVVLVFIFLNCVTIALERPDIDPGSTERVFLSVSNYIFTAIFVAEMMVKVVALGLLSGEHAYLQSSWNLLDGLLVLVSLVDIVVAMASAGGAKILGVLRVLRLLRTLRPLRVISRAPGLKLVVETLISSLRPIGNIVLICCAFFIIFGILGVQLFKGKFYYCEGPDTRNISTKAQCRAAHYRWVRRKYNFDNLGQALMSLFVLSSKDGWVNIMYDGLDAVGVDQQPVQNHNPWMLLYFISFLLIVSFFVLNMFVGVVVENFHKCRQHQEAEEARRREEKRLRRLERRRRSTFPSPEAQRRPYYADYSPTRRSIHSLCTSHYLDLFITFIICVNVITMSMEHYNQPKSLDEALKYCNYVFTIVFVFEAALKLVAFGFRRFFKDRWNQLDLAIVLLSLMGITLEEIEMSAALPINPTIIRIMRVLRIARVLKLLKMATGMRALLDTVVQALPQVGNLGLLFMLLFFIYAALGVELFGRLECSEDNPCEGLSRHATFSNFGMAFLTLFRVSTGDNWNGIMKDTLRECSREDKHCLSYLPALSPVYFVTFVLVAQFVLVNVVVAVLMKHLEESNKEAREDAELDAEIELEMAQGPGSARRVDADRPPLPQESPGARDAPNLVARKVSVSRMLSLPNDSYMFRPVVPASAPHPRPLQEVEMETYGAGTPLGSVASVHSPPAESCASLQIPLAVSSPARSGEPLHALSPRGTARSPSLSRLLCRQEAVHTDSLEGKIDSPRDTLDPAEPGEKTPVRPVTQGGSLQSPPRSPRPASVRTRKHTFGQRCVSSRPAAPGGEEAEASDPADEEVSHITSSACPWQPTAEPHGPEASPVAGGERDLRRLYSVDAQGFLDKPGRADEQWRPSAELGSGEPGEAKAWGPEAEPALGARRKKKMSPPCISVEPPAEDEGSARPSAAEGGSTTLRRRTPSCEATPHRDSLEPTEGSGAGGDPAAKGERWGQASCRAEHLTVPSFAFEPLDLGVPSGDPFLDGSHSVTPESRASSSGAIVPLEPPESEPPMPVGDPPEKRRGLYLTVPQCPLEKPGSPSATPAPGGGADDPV

B1: KCa1.1 potassium channel α-subunit, full length, myc-tagged, human (natural protein)
chain: not shown
fold increase of the P2/P1 ratio of KCa1.1 current at +40 mV when P2 is preceded by a −30 mV prepulse, whole-cell patch clamp of tsA-201 cells coexpressing Cav3.2 and KCa1.1: 2.7 fold
